{
  "source": "the supplement of paper PMC9876800",
  "data": [
    {"test_system": "peptide library, one residue held at a place counted from the S/T acceptor", "test": "relative phosphorylation of the sub-library (ratio to the mean residue at this position); human; higher = residue favoured", "conditions": "D fixed; at +2", "method_in_brief": "(§1)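 Purified recombinant kinases (human or orthologue constructs) were incubated in 384-well plates with biotinylated degenerate peptide sub-libraries, each fixing one residue at one position around a central Ser/Thr. Peptides were at 50 μM, with 50 μM ATP spiked with γ-32P-ATP, for 90 min under kinase-specific conditions. Spots on streptavidin membranes were phosphorimaged and quantified by densitometry. Relative sub-library phosphorylation is a ratio to the mean residue at that position.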", "values": [
      {"substance": "STK10, construct: aa18-317 (from UniProt O94804)", "relative phosphorylation": 0.371},
      {"substance": "STK39, construct: Full length (from UniProt Q9UEW8)", "relative phosphorylation": 0.398}
    ]},
    {"test_system": "peptide library, one residue held at a place counted from the S/T acceptor", "test": "relative phosphorylation of the sub-library (ratio to the mean residue at this position); human; higher = residue favoured", "conditions": "D fixed; at +3", "method_in_brief": "as §1", "values": [
      {"substance": "CSNK2A1, construct: Full length (from UniProt P68400)", "relative phosphorylation": 2.81},
      {"substance": "NEK1, construct: aa1-505 (from UniProt Q96PY6)", "relative phosphorylation": 0.504},
      {"substance": "PAK2, construct: aa3-end (from UniProt Q13177)", "relative phosphorylation": 0.855},
      {"substance": "PRKCG, construct: Full length (from UniProt P05129)", "relative phosphorylation": 0.452},
      {"substance": "STK10, construct: aa18-317 (from UniProt O94804)", "relative phosphorylation": 0.456},
      {"substance": "STK39, construct: Full length (from UniProt Q9UEW8)", "relative phosphorylation": 0.795}
    ]},
    {"test_system": "peptide library, one residue held at a place counted from the S/T acceptor", "test": "relative phosphorylation of the sub-library (ratio to the mean residue at this position); human; higher = residue favoured", "conditions": "D fixed; at +4", "method_in_brief": "as §1", "values": [
      {"substance": "CSNK2A1, construct: Full length (from UniProt P68400)", "relative phosphorylation": 2.06},
      {"substance": "NEK1, construct: aa1-505 (from UniProt Q96PY6)", "relative phosphorylation": 0.774},
      {"substance": "PAK2, construct: aa3-end (from UniProt Q13177)", "relative phosphorylation": 0.98},
      {"substance": "PRKCG, construct: Full length (from UniProt P05129)", "relative phosphorylation": 0.666},
      {"substance": "STK10, construct: aa18-317 (from UniProt O94804)", "relative phosphorylation": 0.637},
      {"substance": "STK39, construct: Full length (from UniProt Q9UEW8)", "relative phosphorylation": 0.812}
    ]},
    {"test_system": "peptide library, one residue held at a place counted from the S/T acceptor", "test": "relative phosphorylation of the sub-library (ratio to the mean residue at this position); human; higher = residue favoured", "conditions": "D fixed; at -1", "method_in_brief": "as §1", "values": [
      {"substance": "CSNK2A1, construct: Full length (from UniProt P68400)", "relative phosphorylation": 3.14},
      {"substance": "NEK1, construct: aa1-505 (from UniProt Q96PY6)", "relative phosphorylation": 0.566},
      {"substance": "PAK2, construct: aa3-end (from UniProt Q13177)", "relative phosphorylation": 0.562},
      {"substance": "PRKCG, construct: Full length (from UniProt P05129)", "relative phosphorylation": 0.538},
      {"substance": "STK10, construct: aa18-317 (from UniProt O94804)", "relative phosphorylation": 0.412},
      {"substance": "STK39, construct: Full length (from UniProt Q9UEW8)", "relative phosphorylation": 1.29}
    ]},
    {"test_system": "peptide library, one residue held at a place counted from the S/T acceptor", "test": "relative phosphorylation of the sub-library (ratio to the mean residue at this position); human; higher = residue favoured", "conditions": "D fixed; at -2", "method_in_brief": "as §1", "values": [
      {"substance": "CSNK2A1, construct: Full length (from UniProt P68400)", "relative phosphorylation": 1.45},
      {"substance": "NEK1, construct: aa1-505 (from UniProt Q96PY6)", "relative phosphorylation": 0.69},
      {"substance": "PAK2, construct: aa3-end (from UniProt Q13177)", "relative phosphorylation": 0.197},
      {"substance": "PRKCG, construct: Full length (from UniProt P05129)", "relative phosphorylation": 0.455},
      {"substance": "STK10, construct: aa18-317 (from UniProt O94804)", "relative phosphorylation": 0.51},
      {"substance": "STK39, construct: Full length (from UniProt Q9UEW8)", "relative phosphorylation": 1.04}
    ]},
    {"test_system": "peptide library, one residue held at a place counted from the S/T acceptor", "test": "relative phosphorylation of the sub-library (ratio to the mean residue at this position); human; higher = residue favoured", "conditions": "D fixed; at -3", "method_in_brief": "as §1", "values": [
      {"substance": "CSNK2A1, construct: Full length (from UniProt P68400)", "relative phosphorylation": 1.78},
      {"substance": "NEK1, construct: aa1-505 (from UniProt Q96PY6)", "relative phosphorylation": 0.378},
      {"substance": "PAK2, construct: aa3-end (from UniProt Q13177)", "relative phosphorylation": 0.506},
      {"substance": "PRKCG, construct: Full length (from UniProt P05129)", "relative phosphorylation": 0.412},
      {"substance": "STK10, construct: aa18-317 (from UniProt O94804)", "relative phosphorylation": 0.598},
      {"substance": "STK39, construct: Full length (from UniProt Q9UEW8)", "relative phosphorylation": 1.1}
    ]},
    {"test_system": "peptide library, one residue held at a place counted from the S/T acceptor", "test": "relative phosphorylation of the sub-library (ratio to the mean residue at this position); human; higher = residue favoured", "conditions": "D fixed; at -4", "method_in_brief": "as §1", "values": [
      {"substance": "CSNK2A1, construct: Full length (from UniProt P68400)", "relative phosphorylation": 1.79},
      {"substance": "NEK1, construct: aa1-505 (from UniProt Q96PY6)", "relative phosphorylation": 0.781},
      {"substance": "PAK2, construct: aa3-end (from UniProt Q13177)", "relative phosphorylation": 0.844},
      {"substance": "PRKCG, construct: Full length (from UniProt P05129)", "relative phosphorylation": 0.62},
      {"substance": "STK10, construct: aa18-317 (from UniProt O94804)", "relative phosphorylation": 0.695},
      {"substance": "STK39, construct: Full length (from UniProt Q9UEW8)", "relative phosphorylation": 1.47}
    ]},
    {"test_system": "peptide library, one residue held at a place counted from the S/T acceptor", "test": "relative phosphorylation of the sub-library (ratio to the mean residue at this position); human; higher = residue favoured", "conditions": "D fixed; at -5", "method_in_brief": "as §1", "values": [
      {"substance": "CSNK2A1, construct: Full length (from UniProt P68400)", "relative phosphorylation": 1.46},
      {"substance": "NEK1, construct: aa1-505 (from UniProt Q96PY6)", "relative phosphorylation": 0.764},
      {"substance": "PAK2, construct: aa3-end (from UniProt Q13177)", "relative phosphorylation": 0.724},
      {"substance": "PRKCG, construct: Full length (from UniProt P05129)", "relative phosphorylation": 0.676},
      {"substance": "STK10, construct: aa18-317 (from UniProt O94804)", "relative phosphorylation": 0.905},
      {"substance": "STK39, construct: Full length (from UniProt Q9UEW8)", "relative phosphorylation": 1.27}
    ]},
    {"test_system": "peptide library, one residue held at a place counted from the S/T acceptor", "test": "relative phosphorylation of the sub-library (ratio to the mean residue at this position); human; higher = residue favoured", "conditions": "E fixed; at +1", "method_in_brief": "as §1", "values": [
      {"substance": "CSNK2A1, construct: Full length (from UniProt P68400)", "relative phosphorylation": 3.33},
      {"substance": "NEK1, construct: aa1-505 (from UniProt Q96PY6)", "relative phosphorylation": 0.268},
      {"substance": "PAK2, construct: aa3-end (from UniProt Q13177)", "relative phosphorylation": 0.432},
      {"substance": "PRKCG, construct: Full length (from UniProt P05129)", "relative phosphorylation": 0.29},
      {"substance": "STK10, construct: aa18-317 (from UniProt O94804)", "relative phosphorylation": 0.167},
      {"substance": "STK39, construct: Full length (from UniProt Q9UEW8)", "relative phosphorylation": 0.266}
    ]},
    {"test_system": "peptide library, one residue held at a place counted from the S/T acceptor", "test": "relative phosphorylation of the sub-library (ratio to the mean residue at this position); human; higher = residue favoured", "conditions": "E fixed; at +2", "method_in_brief": "as §1", "values": [
      {"substance": "CSNK2A1, construct: Full length (from UniProt P68400)", "relative phosphorylation": 2.03},
      {"substance": "NEK1, construct: aa1-505 (from UniProt Q96PY6)", "relative phosphorylation": 0.389},
      {"substance": "PAK2, construct: aa3-end (from UniProt Q13177)", "relative phosphorylation": 0.37},
      {"substance": "PRKCG, construct: Full length (from UniProt P05129)", "relative phosphorylation": 0.183},
      {"substance": "STK10, construct: aa18-317 (from UniProt O94804)", "relative phosphorylation": 0.225},
      {"substance": "STK39, construct: Full length (from UniProt Q9UEW8)", "relative phosphorylation": 0.234}
    ]},
    {"test_system": "peptide library, one residue held at a place counted from the S/T acceptor", "test": "relative phosphorylation of the sub-library (ratio to the mean residue at this position); human; higher = residue favoured", "conditions": "E fixed; at +3", "method_in_brief": "as §1", "values": [
      {"substance": "CSNK2A1, construct: Full length (from UniProt P68400)", "relative phosphorylation": 9.11},
      {"substance": "NEK1, construct: aa1-505 (from UniProt Q96PY6)", "relative phosphorylation": 0.41},
      {"substance": "PAK2, construct: aa3-end (from UniProt Q13177)", "relative phosphorylation": 0.921},
      {"substance": "PRKCG, construct: Full length (from UniProt P05129)", "relative phosphorylation": 0.628},
      {"substance": "STK10, construct: aa18-317 (from UniProt O94804)", "relative phosphorylation": 0.409},
      {"substance": "STK39, construct: Full length (from UniProt Q9UEW8)", "relative phosphorylation": 0.96}
    ]},
    {"test_system": "peptide library, one residue held at a place counted from the S/T acceptor", "test": "relative phosphorylation of the sub-library (ratio to the mean residue at this position); human; higher = residue favoured", "conditions": "E fixed; at +4", "method_in_brief": "as §1", "values": [
      {"substance": "CSNK2A1, construct: Full length (from UniProt P68400)", "relative phosphorylation": 2.6},
      {"substance": "NEK1, construct: aa1-505 (from UniProt Q96PY6)", "relative phosphorylation": 0.732}
    ]}
  ]
}
